# Key:
# Format in all cases: in vivo
# [1] = system: Arabidopsis thaliana T1 plants; test: Topramezone tolerance of transgenic Arabidopsis thaliana T1 plants (spray, bleached leaf area grade, damage score); settings: 7 DAT, Table 4; for Classification and statistics of the grade of pesticide damage: Grade 0 / Classification and statistics of the grade of pesticide damage: Grade 1 / Classification and statistics of the grade of pesticide damage: Grade 2 / Classification and statistics of the grade of pesticide damage: Grade 3: number of plants; for Scores: pesticide damage score 0-100
# In short: (§1)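 Damage was assessed by bleaching grade (0 none; 1 <50%; 2 >50%; 3 100% of leaf area) one week after spraying. Sprays on 18-day-old T1 and wild-type plants used field-rate multiples: topramezone 25–200, isoxaflutole 35–280, mesotrione 52.5–420 g ai/ha.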
# [2] = system: Arabidopsis thaliana T1 plants; test: Isoxaflutole tolerance of transgenic Arabidopsis thaliana T1 plants (spray, bleached leaf area grade, damage score); design: Scores (pesticide damage): scale not given here; settings: spray, Arabidopsis thaliana T1 plants; for Classification and statistics of the grade of pesticide damage: Grade 0 (number of plants) / Classification and statistics of the grade of pesticide damage: Grade 1 (number of plants) / Classification and statistics of the grade of pesticide damage: Grade 2 (number of plants) / Classification and statistics of the grade of pesticide damage: Grade 3 (number of plants): 16 plants
# In short: as §1
# [3] = system: Arabidopsis thaliana T1 plants; test: Mesotrione tolerance of transgenic Arabidopsis thaliana T1 plants (spray, bleached leaf area grade, damage score); design: Scores: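 damage score 0-100 computed as Σ(N×S)/(T×M)×100 over grades 0-3 with higher meaning more damage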; settings: Arabidopsis thaliana T1 plants; for Grade 0 (classification and statistics of the grade of pesticide damage; number of plants) / Grade 1 (classification and statistics of the grade of pesticide damage; number of plants) / Grade 2 (classification and statistics of the grade of pesticide damage; number of plants) / Grade 3 (classification and statistics of the grade of pesticide damage; number of plants): 16 plants
# In short: as §1
# soybean T1 plants [4] = test: Topramezone tolerance of transgenic soybean T1 plants; settings: different concentrations
# Procedure: T1 transformants were initially selected from the untransformed seeds using a glufosinate selection scheme. […] The degree of damage caused by the herbicide was measured for each plant according to the proportion of bleached leaf area (the proportion of bleached leaf area=bleached leaf area/total leaf area×100%) 7 days after spraying (7 DAT): the case where there is basically no bleached phenotype is defined as grade 0, the case where the proportion of bleached leaf area is less than 50% is defined as grade 1, the case where the proportion of bleached leaf area is more than 50% is defined as grade 2, and the case where the proportion of bleached leaf area is 100% grade is defined as grade 3.
# The soybean T1 plants into which the SbHPPD-02 nucleotide sequence was introduced, soybean T1 plants into which the SbHPPDm-F372A-02 nucleotide sequence was introduced, soybean T1 plants into which the SbHPPDm-F383W-02 nucleotide sequence was introduced, soybean T1 plants into which the SbHPPDm-F372A-F383W-02 nucleotide sequence was introduced, soybean T1 plants into which the control vector DBN11726N nucleotide sequence was introduced, and wild-type soybean plants (V3-V4 at seedling stage) were sprayed with topramezone at three different concentrations (i.e., 25 g ai/ha (one-fold field concentration, 1×). […] According to the method in point 6 of Example 1, after 7 days of spraying (7 DAT), the damage degree of each plant by the herbicide was statistically analyzed, and the scoring and resistance evaluation were carried out accordingly. […]
# soybean T1 plants [5] = test: Isoxaflutole tolerance of transgenic soybean T1 plants; settings: different concentrations
# soybean T1 plants [6] = test: Mesotrione tolerance of transgenic soybean T1 plants; settings: different concentrations
# [7] = isoxaflutole 35 g ai/ha (0.5x field concentration)
# [8] = isoxaflutole 70 g ai/ha (1x field concentration)
molecule,measurement,setting,value
"SbHPPDm-F372A-F383W-02: nucleotide sequence encoding Sorghum bicolor HPPD with F372A+F383W; vector DBN11761 (nucleic acid, SbHPPDm-F372A-F383W-02 Nucleotide Sequence, vector DBN11761) DNA: ATGCCGCCCACTCCAACAACTGCTGCTGCGACGGGAGCAGCTGTCGCCGCTGCTTCTGCTGAGCAGGCTGCCTTCAGGCTCGTCGGGCACAGAAATTTTGTTCGTGTAAATCCAAGGAGTGATAGGTTCCACACCTTGGCTTTTCACCACGTGGAGTTGTGGTGTGCTGATGCAGCCTCGGCAGCGGGGCGCTTCTCGTTTGGTCTCGGTGCTCCGCTCGCCGCAAGATCTGATCTTAGCACTGGAAACACAGCGCATGCCTCCCTGCTCCTGCGCTCTGGCGCGCTGGCGTTCCTCTTCACGGCGCCATATGCTCACGGCGCCGACGCCGCCACCGCGTCATTGCCGTCTTTTAGTGCAGCCGAAGCAAGAAGATTTGCAGCAGACCACGGCCTCGCCGTAAGGGCCGTGGCCTTACGTGTCGCCGATGCCGAAGATGCTTTCCGCGCCTCTGTAGCAGCTGGAGCAAGGCCAGCATTTGAACCTGTTGAATTGGGGTTAGGATTCCGTCTTGCAGAAGTTGAGCTTTATGGCGACGTTGTTTTGAGATACGTTTCATATCCTGATGACGCTGACGCTAGCTTCTTGCCTGGTTTTGTGGGGGTGACATCACCTGGGGCAGCAGATTATGGTCTCAGGCGGTTTGATCATATTGTTGGAAACGTTCCTGAACTCGCGCCGGCGGCAGCCTACTTCGCCGGTTTCACTGGGTTTCATGAATTTGCTGAATTCACAGCCGAGGATGTCGGCACCACCGAGAGTGGACTGAACTCCATGGTGCTGGCCAACAATGCAGAGAATGTCCTTCTTCCCTTGAATGAACCAGTTCATGGAACAAAAAGGCGTTCCCAAATACAAACATACCTCGACCATCATGGTGGACCAGGCGTTCAGCATATGGCTCTCGCTAGTGACGATGTTCTACGAACCCTGCGAGAGATGCAGGCGCGGTCTGCAATGGGAGGATTTGAGTTCATGGCACCTCCTGCCCCTGAATATTATGATGGTGTTCGGAGAAGGGCAGGTGATGTGCTAACTGAAGCTCAAATCAAGGAGTGCCAGGAGCTTGGCGTGCTGGTCGATCGGGATGATCAAGGTGTGCTTCTGCAGATTGCCACTAAACCAGTGGGTGACCGCCCCACGCTGTGGCTAGAGATCATCCAGAGAATAGGGTGCATGGAGAAGGACGAAAAAGGACAAGAGTACCAGAAGGGAGGTTGTGGCGGCTTTGGAAAAGGGAACTTCTCCCAATTATTCAAGTCAATTGAAGACTATGAAAAGAGTTTGGAGGCTAAGCAAGCTGCAGCCGCCCAGGGCAGCTGA",Classification and statistics of the grade of pesticide damage: Grade 0,[1]; topramezone 25 g ai/ha (1×),16
same,Classification and statistics of the grade of pesticide damage: Grade 1,[1]; topramezone 25 g ai/ha (1×),0
same,Classification and statistics of the grade of pesticide damage: Grade 2,[1]; topramezone 25 g ai/ha (1×),0
same,Classification and statistics of the grade of pesticide damage: Grade 3,[1]; topramezone 25 g ai/ha (1×),0
same,Classification and statistics of the grade of pesticide damage: Grade 0,[1]; topramezone 100 g ai/ha (4×),9
same,Classification and statistics of the grade of pesticide damage: Grade 1,[1]; topramezone 100 g ai/ha (4×),7
same,Classification and statistics of the grade of pesticide damage: Grade 2,[1]; topramezone 100 g ai/ha (4×),0
same,Classification and statistics of the grade of pesticide damage: Grade 3,[1]; topramezone 100 g ai/ha (4×),0
same,Scores,[1]; topramezone 25 g ai/ha (1×),0
same,Scores,[1]; topramezone 100 g ai/ha (4×),15
same,Resistance evaluation,[1]; topramezone 25 g ai/ha (1×),highly
same,Resistance evaluation,[1]; topramezone 100 g ai/ha (4×),highly
same,Resistance evaluation,[2]; [7],Highly
same,Scores (pesticide damage),[2]; [7],8
same,Classification and statistics of the grade of pesticide damage: Grade 0 (number of plants),[2]; [7],12
same,Classification and statistics of the grade of pesticide damage: Grade 1 (number of plants),[2]; [7],4
same,Classification and statistics of the grade of pesticide damage: Grade 2 (number of plants),[2]; [7],0
same,Classification and statistics of the grade of pesticide damage: Grade 3 (number of plants),[2]; [7],0
same,Resistance evaluation,[2]; [8],Highly
same,Scores (pesticide damage),[2]; [8],13
same,Classification and statistics of the grade of pesticide damage: Grade 0 (number of plants),[2]; [8],10
same,Classification and statistics of the grade of pesticide damage: Grade 1 (number of plants),[2]; [8],6
same,Classification and statistics of the grade of pesticide damage: Grade 2 (number of plants),[2]; [8],0
same,Classification and statistics of the grade of pesticide damage: Grade 3 (number of plants),[2]; [8],0
same,Resistance evaluation,[3]; mesotrione 52.5 g ai/ha,Highly resistant
same,Scores,[3]; mesotrione 52.5 g ai/ha,13
same,Grade 0 (classification and statistics of the grade of pesticide damage; number of plants),[3]; mesotrione 52.5 g ai/ha,10
same,Grade 1 (classification and statistics of the grade of pesticide damage; number of plants),[3]; mesotrione 52.5 g ai/ha,6
same,Grade 2 (classification and statistics of the grade of pesticide damage; number of plants),[3]; mesotrione 52.5 g ai/ha,0
same,Grade 3 (classification and statistics of the grade of pesticide damage; number of plants),[3]; mesotrione 52.5 g ai/ha,0
same,Resistance evaluation,[3]; mesotrione 105 g ai/ha,Poorly resistant
same,Scores,[3]; mesotrione 105 g ai/ha,38
same,Grade 0 (classification and statistics of the grade of pesticide damage; number of plants),[3]; mesotrione 105 g ai/ha,0
same,Grade 1 (classification and statistics of the grade of pesticide damage; number of plants),[3]; mesotrione 105 g ai/ha,14
same,Grade 2 (classification and statistics of the grade of pesticide damage; number of plants),[3]; mesotrione 105 g ai/ha,2
same,Grade 3 (classification and statistics of the grade of pesticide damage; number of plants),[3]; mesotrione 105 g ai/ha,0
same,tolerance to HPPD-inhibitor herbicides (in words): topramezone,soybean T1 plants [4],different degrees of tolerance
same,tolerance to HPPD-inhibitor herbicides (in words): isoxaflutole,soybean T1 plants [5],different degrees of tolerance
same,tolerance to HPPD-inhibitor herbicides (in words): mesotrione,soybean T1 plants [6],different degrees of tolerance

# Reference: patent publication US20250043302A1, “MUTATED HYDROXYPHENYLPYRUVATE DIOXYGENASE POLYPEPTIDE, AND CODING GENE AND USE THEREOF” (BEIJING DABEINONG BIOTECHNOLOGY CO., LTD., priority 2021, published 2025)
